Assay results taken from patent US6861399B2, “Cleaning compositions containing human serine protease T” (Ortho-McNeil Pharmaceutical , Inc., priority 1999, dated 2005).
Non-standard residues stand in square brackets, D forms with d. *: point of attachment. pNA = O=[N+]([O-])c1ccc(N*)cc1; HHT = not defined here

Biological target: T1, activated protease T-HA6×HIS (Homo sapiens, UniProt Q9BQR3, D40A/M35I/Q39Y/Q42E/T41L)
T1 construct: made in house; host or cells: Sf9 insect cells (baculovirus)
Experiment: Amidolytic activity of activated protease T on chromogenic pNA substrates
Format: biochemical
Conditions: substrate at 500 uM; 10 mM Tris-HCl pH 7.8, 25 mM NaCl, 25 mM imidazole; pNA release over 120 minutes at 37° C., 405 nm; N.A. = No Activity
Description: The conditioned medium from infected Sf9 cells was used to purify secreted recombinant PFEK-protease T-HA6×HIS zymogen. The medium was concentrated 5 to 10 fold using a Centriprep concentrator (Amicon Inc., Beverly, Mass.). 150 μl of a 50% Ni-NTA slurry (Qiagen, Valencia, Calif.) was added to 5 to 10 ml of the concentrated medium and mixed by shaking at 4° C. for 60 minutes. The zymogen-bound resin was washed 3 times with 1.5 ml of wash buffer (10 mM Tris-HCl (pH 8.0), 300 mM NaCl, and 15 mM imidazole), followed by with a 1.5 ml wash with ds H2O. Enterokinase cleavage was carried out by adding enterokinase (Novagen, Inc., Madison Wis.; or Sigma, St. Louis, Mo.) to the zymogen-bound Ni-NTA beads in a 150 ul volume at room temperature overnight with gentle shaking in a buffer containing 20 mM Tris-HCl (pH 7.4), 50 mM NaCl, and 2.0 mM CaCl2. The resin was then washed twice with 1.5 ml wash buffer. The activated protease T-HA6×HIS was eluted with elution buffer (20 mM Tris-HCl (pH 7.8), 250 mM NaCl, and 250 mM imidazole). Eluted protein concentration was determined by a Micro BCA Kit (Pierce, Rockford, Ill.) using bovine serum albumin as a standard. Amidolytic activities of the activated protease T-HA6×HIS was monitored by release of para-nitroaniline (pNA) from the synthetic substrates indicated in Table 1 and FIG. 6. […] Release of pNA was measured over 120 minutes at 37° C. on a micro-plate reader (Molecular Devices, Menlo Park, Calif.) with a 405 nm absorbance filter. The initial reaction rates (Vmax, mOD/min) were determined from plots of absorbance versus time using Softmax (Molecular Devices, Menlo Park, Calif.). […]
Amidolytic activities of the activated serine proteases are monitored by release of para-nitroaniline (pNA) from synthetic substrates that are commercially available (Bachem California Inc., Torrance, […].; American Diagnostica Inc., Greenwich, Conn.; Kabi Pharmacia Hepar Inc., Franklin, Ohio). […] Release of pNA is measured over 120 min at 37° C. on a micro-plate reader (Molecular Devices, Menlo Park, Calif.) with a 405 nm absorbance filter. […]

T1 sequence (Q9BQR3 35-290 M35I/Q39Y/D40A/T41L/Q42E limits assumed): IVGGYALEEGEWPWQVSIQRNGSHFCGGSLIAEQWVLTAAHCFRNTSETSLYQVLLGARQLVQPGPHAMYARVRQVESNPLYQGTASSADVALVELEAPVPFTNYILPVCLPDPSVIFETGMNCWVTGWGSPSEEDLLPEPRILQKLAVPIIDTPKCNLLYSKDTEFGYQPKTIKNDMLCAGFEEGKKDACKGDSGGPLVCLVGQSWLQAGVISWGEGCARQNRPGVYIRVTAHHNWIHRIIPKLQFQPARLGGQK

| Substance | Specific Activity |
| --- | --- |
| H-D-Lys(CBO)-Pro-Arg-pNA (H-[dK](CBO)-Pro-Arg-pNA) [commercially available chromogenic substrate] | 0.057 ± 0.022 nmole pNA produced/min/μg protein |
| H-D-Pro-HHT-Arg-pNA (H-[dP]-[HHT]-Arg-pNA; reading uncertain; also: printed as H-D-Pro-HHT-Arg-pNA) [commercially available chromogenic substrate] | 0.010 ± 0.000 nmole pNA produced/min/μg protein |
| H-DL-Val-Leu-Arg-pNA (H-Val-Leu-Arg-pNA; also: DL-Val (racemic) at 1) [commercially available chromogenic substrate] | 0.016 ± 0.003 nmole pNA produced/min/μg protein |
